Measured values reported in article PMC2568893, “Role of αBI5 and αBT162 residues in subunit interaction during oligomerization of αB-crystallin” (Molecular Vision, 2008).
Substitutions are numbered along the chain they refer to. Numbers in names are those of the source.

Key:
[1] = target: the molecule itself; assay: SEC-MALS; TSK G5000PWXL column, 100 µg protein, 50 mM phosphate, 150 mM NaCl, 0.02% sodium azide, pH 7.2, with the reducing agent TCEP; without it both Cys mutants formed larger oligomers
[2] = target: αBT162C mutant of human αB-crystallin (human) (UniProt P02511); assay: FRET or BRET; amine-labelled proteins: Alexa Fluor 350 TFP ester (donor) and Alexa Fluor 488 TFP ester (acceptor); 50 µg of each labelled protein mixed at 37 °C; subunit exchange rate from Ft/F0

B1: αBI5C mutant of human αB-crystallin (natural protein, UniProt P02511 1-175, looked up)
chain: MDIACHHPWIRRPFFPFHSPSRLFDQFFGEHLLESDLFPTSTSLSPFYLRPPSFLRAPSWFDTGLSEMRLEKDRFSVNLDVKHFSPEELKVKVLGDVIEVHGKHEERQDEHGFISREFHRKYRIPADVDPLTITSSLSSDGVLTVNGPRKQVSGPERTIPITREEKPAVTAAPKK
modifications: FRET assays only: Alexa Fluor 488 or Alexa Fluor 555 C5-maleimide on the cysteine (thiol-labelled), or Alexa Fluor 350 carboxylic acid TFP ester on amines (amine-labelled, donor); unlabelled in the other experiments
notes: human αB-crystallin (HspB5), 175 amino acids, with I5C; cDNA in pET-23d(+); Homo-oligomer, on average 35 subunits when reduced; also called αB5C
stoichiometry N [1]: 35 subunits
rate of subunit exchange [2]: 0.000655 s⁻¹
subunit interaction rate [2]: 6.5e-05 s⁻¹

B2: αBT162C mutant of human αB-crystallin (natural protein, UniProt P02511 1-175, looked up)
chain: B1 chain with C5I, T162C
modifications: FRET assays only: Alexa Fluor 488 or Alexa Fluor 555 C5-maleimide on the cysteine (thiol-labelled), or Alexa Fluor 488 carboxylic acid TFP ester on amines (amine-labelled, acceptor); unlabelled in the other experiments
notes: human αB-crystallin (HspB5), 175 amino acids, with T162C; cDNA in pET-23d(+); Homo-oligomer, on average 35 subunits when reduced; also called αB162C
stoichiometry N [1]: 35 subunits
